Patent publication US20260092116A1 (DARTSBIO PHARMACEUTICALS, published 2026)

T1: his-tagged human B7H3 antigen protein (human, UniProt Q5ZPR3 29-461, limits assumed)
T1 construct: also called B7H3-his; CD276; not shown: his tag
T1 sequence (looked up): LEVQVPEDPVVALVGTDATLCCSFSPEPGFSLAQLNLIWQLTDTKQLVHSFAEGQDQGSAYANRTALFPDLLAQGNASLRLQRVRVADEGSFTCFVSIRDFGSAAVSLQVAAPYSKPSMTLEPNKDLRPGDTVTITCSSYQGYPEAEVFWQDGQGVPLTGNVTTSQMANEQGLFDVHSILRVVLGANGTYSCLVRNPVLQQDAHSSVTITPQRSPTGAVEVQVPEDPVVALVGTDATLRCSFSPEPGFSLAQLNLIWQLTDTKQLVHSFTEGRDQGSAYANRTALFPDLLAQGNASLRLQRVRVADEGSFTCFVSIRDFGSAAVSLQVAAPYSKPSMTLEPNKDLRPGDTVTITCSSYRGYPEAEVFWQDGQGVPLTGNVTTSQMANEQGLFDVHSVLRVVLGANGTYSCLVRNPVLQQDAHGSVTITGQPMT

T2: B7H3 antigen (huB7H3 antigen) (human, UniProt Q5ZPR3 29-461, limits assumed)
T2 sequence (looked up): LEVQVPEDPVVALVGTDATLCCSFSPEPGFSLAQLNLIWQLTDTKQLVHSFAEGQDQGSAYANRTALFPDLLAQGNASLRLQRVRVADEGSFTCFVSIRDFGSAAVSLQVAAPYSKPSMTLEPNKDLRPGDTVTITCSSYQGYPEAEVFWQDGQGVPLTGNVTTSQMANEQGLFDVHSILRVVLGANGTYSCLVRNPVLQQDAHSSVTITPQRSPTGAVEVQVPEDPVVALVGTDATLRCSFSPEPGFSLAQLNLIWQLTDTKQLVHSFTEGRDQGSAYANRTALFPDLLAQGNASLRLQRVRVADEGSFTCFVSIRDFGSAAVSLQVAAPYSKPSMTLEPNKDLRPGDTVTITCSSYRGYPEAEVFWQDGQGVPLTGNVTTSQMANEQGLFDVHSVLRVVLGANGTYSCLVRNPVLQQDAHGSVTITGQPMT


Key:
[1] = biological target: T1, his-tagged human B7H3 antigen protein; assay: binding ELISA, plate coated with his-tagged B7H3 at 2 ug/ml
Experimental: (§1) A 96-well ELISA plate was coated with 2 μg/ml of his-tagged PDL1 or B7H3 antigen protein at 4° C. overnight, and 100 μl of Casein blocking solution was added to each well the next day for blocking at 37° C. for 1 hour. […] After incubation at 37° C. for 1 hour, unbound antibodies were washed off with 0.1% PBST, and bound antibodies were detected using horseradish peroxidase (HRP)-conjugated goat anti-human IgG (H+L) antibody (Jackson ImmunoResearch, USA), and 50 μl of 3,3′,5,5′-tetramethylbenzidine substrate (TMB) was used for color development. After standing for 5 minutes, 50 μl of 2 M sulfuric acid was added to stop the color development, and then the absorbance was detected using a SpectraMax M5e (Molecular Devices) microplate reader at OD450 nm. The antibody concentration was plotted against the OD450 reading using a 4-parameter fitting method, and the EC₅₀ was calculated.

[2] = biological target: T2, B7H3 antigen (huB7H3 antigen); assay: BLI, VHH-Fc (100 nM) captured on Protein A probe, B7H3 antigen from 200 nM in 2-fold dilutions
Experimental: The above phage clones were sequenced to obtain the B7H3 VHH gene sequence, and its C-terminus was fused with the human Fc protein gene to construct and express B7H3-Fc. 100nM of B7H3 VHH-Fc was captured by the biolayer interferometry method using the Protein A probe and bound to B7H3 antigen with an initial concentration of 200 nM, a 2-fold dilution. The KD value of the antibody binding to antigen was calculated.

[3] = biological target: T3, his-tagged human PDL1 antigen protein (human, UniProt Q9NZQ7 19-238); assay: binding ELISA, plate coated with his-tagged PDL1 at 2 ug/ml
T3 construct: also called PDL1-his; not shown: his tag
Experimental: as §1

[4] = biological target: T4, biotinylated PDL1 antigen (human, UniProt Q9NZQ7 19-238, biotinylated (sites not given)); assay: flow cytometry, blocking of biotinylated PDL1 (50 nM) binding to CHO-PD1 cells
T4 construct: also called human PDL1 (biotinylated)
Experimental: The mixed solution was then incubated with the cells at 4° C. for 45 minutes, and unbound antigens were washed off with PBS.
The cells were then fluorescently stained with PE-streptavidin. Finally, the mean fluorescence intensity (MFI) of the PE channel in the flow cytometer was read, the antibody concentration was plotted against MFI, and the IC₅₀ of the antibody was calculated using a four-parameter fitting.

[5] = biological target: T3, his-tagged human PDL1 antigen protein; assay: ELISA on coated PDL1-his, bispecific antibody after 1 hour at 60°C
Experimental: as §1

[6] = biological target: T1, his-tagged human B7H3 antigen protein; assay: ELISA on coated B7H3-his, bispecific antibody after 1 hour at 60°C
Experimental: as §1

[7] = biological target: T3, his-tagged human PDL1 antigen protein; assay: ELISA on coated PDL1-his, bispecific antibody not heat-treated (4°C)
Experimental: as §1

[8] = biological target: T1, his-tagged human B7H3 antigen protein; assay: ELISA on coated B7H3-his, bispecific antibody not heat-treated (4°C)
Experimental: as §1

[9] = biological target: T1, his-tagged human B7H3 antigen protein; assay: BLI (Octet), antibody on Protein A probe, B7H3-his from 200 nM in 2-fold dilutions
Experimental: (§2) Kon and Koff values were calculated using the software provided by the supplier to obtain the KD value of the antibody.

[10] = biological target: T3, his-tagged human PDL1 antigen protein; assay: BLI (Octet), antibody on Protein A probe, PDL1-his from 200 nM in 2-fold dilutions
Experimental: as §2

T3 sequence (Q9NZQ7 19-238 limits assumed): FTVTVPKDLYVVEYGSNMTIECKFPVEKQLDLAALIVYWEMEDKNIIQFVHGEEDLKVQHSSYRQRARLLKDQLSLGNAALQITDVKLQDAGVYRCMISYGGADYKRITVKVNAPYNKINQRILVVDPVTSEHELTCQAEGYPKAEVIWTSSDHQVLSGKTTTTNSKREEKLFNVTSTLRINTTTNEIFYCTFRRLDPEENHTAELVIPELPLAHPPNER
T4 sequence (Q9NZQ7 19-238 limits assumed): as above

Binder	EC50 [1] [nM]	Kd [2] [nM]	EC50 [3] [nM]	IC50 [4] [nM]	EC50 (read off the curve) [5] [nM]	EC50 (read off the curve) [6] [nM]	EC50 (read off the curve) [7] [nM]	EC50 (read off the curve) [8] [nM]	Kd [9] [nM]	Kd [10] [nM]
B7H3 VHH-Fc (humanized anti-B7H3 VHH 75-16 fused to human Fc) (Fc fusion, also called B7H3-Fc; not shown: human Fc fused to the C-terminus of the VHH) DVQLQESGGGLVQAGGSLRLSCTASGYTLSTIWIGWFRQAPGKGLEGVAAIYIGSGATYYVDSVKGRFTISQDNAKNTVYLQMNSLKPEDTAMYYCAATGGTVGSMVRFSPVGDFGYWGQGTQVTVSS	0.0251	3.24								
PDL1 monoclonal antibody (antibody, human IgG1, kappa, V domains shown, Parental humanized IgG1 of the bispecific antibody; also called PDL1 hIgG1 humanized monoclonal antibody) VH: QVQLVQSGAEVKKPGASVKVSCKASGYTFTTFGVHWVRQAPGKGLEWVGIIWPGGNTNYNSALMSRVTITADESTSTAYMELSSLRSEDTAVYYCARENYGRAMDYWGQGTTVTVSS VL: DIQMTQSPSSLSASVGDRVTISCRASQSINTYLHWYQQKLGQAPRLLIYYASQSISGVPSRFSGSGSGTDFTLTINSLEAEDAATYYCQNGHSFPLTFGAGTKVEIKR			0.441	94.2						
B7H3/PDL1 bispecific antibody (bispecific antibody, human IgG1, kappa, Anti-PDL1 hIgG1 with one anti-B7H3 VHH (75-16) at the C-terminus of each heavy chain's Fc; also called IgG-VHH2) heavy: not shown light: DIQMTQSPSSLSASVGDRVTISCRASQSINTYLHWYQQKLGQAPRLLIYYASQSISGVPSRFSGSGSGTDFTLTINSLEAEDAATYYCQNGHSFPLTFGAGTKVEIKRTVAAPSVFIFPPSDEQLKSGTASVVCLLNNFYPREAKVQWKVDNALQSGNSQESVTEQDSKDSTYSLSSTLTLSKADYEKHKVYACEVTHQGLSSPVTKSFNRGEC	0.0411		0.306	106	~0.04	~0.02	~0.04	~0.02	8.11	0.585
Enoblituzumab (MGA271) (antibody, V domains shown) VH: EVQLVESGGGLVQPGGSLRLSCAASGFTFSSFGMHWVRQAPGKGLEWVAYISSDSSAIYYADTVKGRFTISRDNAKNSLYLQMNSLRDEDTAVYYCGRGRENIYYGSRLDYWGQGTTVTVSS VL: DIQLTQSPSFLSASVGDRVTITCKASQNVDTNVAWYQQKPGKAPKALIYSASYRYSGVPSRFSGSGSGTDFTLTISSLQPEDFATYYCQQYNNYPFTFGQGTKLEIKR	0.0548									
